Assay results from PMC11032447.

What was measured:
Test in all cases: ITC; secretagogin construct in the cell (10-100 µM), partner in the syringe (80-1500 µM); 25 mM HEPES pH 8.0, 150 mM NaCl, 2 mM CaCl2; 20 °C; MicroCal iTC200; single-site binding model
[1] = target: mouse secretagogin M229E (mouse) (UniProt Q91WD9)
[2] = target: mouse secretagogin M229A (mouse) (UniProt Q91WD9)
[3] = target: mouse secretagogin V233A (mouse) (UniProt Q91WD9)
[4] = target: mouse secretagogin L270A (mouse) (UniProt Q91WD9)
mouse secretagogin L270A (mouse), sequence (Q91WD9 whole entry L270A): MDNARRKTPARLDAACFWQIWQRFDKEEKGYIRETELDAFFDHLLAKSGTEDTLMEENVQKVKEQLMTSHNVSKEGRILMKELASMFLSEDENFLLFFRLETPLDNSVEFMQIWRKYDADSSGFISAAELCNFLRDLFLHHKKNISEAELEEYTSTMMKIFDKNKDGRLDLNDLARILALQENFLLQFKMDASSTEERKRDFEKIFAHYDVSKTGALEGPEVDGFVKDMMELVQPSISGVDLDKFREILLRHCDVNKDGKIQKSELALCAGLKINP

[5] = target: mouse secretagogin R198A (mouse) (UniProt Q91WD9)
mouse secretagogin R198A (mouse), sequence (Q91WD9 whole entry R198A): as the sequence (Q91WD9 whole entry L270A) above, with R198A, A270L counted along it

[6] = target: mouse secretagogin (mouse) (UniProt Q91WD9)
mouse secretagogin (mouse), sequence (Q91WD9 whole entry): as the sequence (Q91WD9 whole entry L270A) above, with A270L counted along it

mouse secretagogin V233A (mouse), sequence (Q91WD9 whole entry V233A): as the sequence (Q91WD9 whole entry L270A) above, with V233A, A270L counted along it
mouse secretagogin M229E (mouse), sequence (Q91WD9 whole entry M229E): as the sequence (Q91WD9 whole entry L270A) above, with M229E, A270L counted along it
mouse secretagogin M229A (mouse), sequence (Q91WD9 whole entry M229A): as the sequence (Q91WD9 whole entry L270A) above, with M229A, A270L counted along it

Kd [1] | Kd [2] | Kd [3] | Kd [4] | Kd [5] | Kd [6] | Substance
5.21 µM | 1.62 µM | 0.125 µM | 16.2 µM | 0.808 µM |  | Hb helix of the Habc domain of mouse syntaxin-4, His6-tagged (domain or fragment)
 |  |  |  |  | 14.1 µM | Habc domain of mouse syntaxin-4, His6-tagged (from UniProt P70452 1-298) (domain or fragment)
 |  |  |  |  | 6.67 µM | Ha helix of the Habc domain of mouse syntaxin-4, His6-tagged (from UniProt P70452 1-298) (domain or fragment)
